Experimental data reported in patent US20050048066A1, “Identification of potential immunodominant acetylcholine receptor alpha subunit” (priority 2000, published 2005).

How the values were obtained:
[1] = target: solubilized HLA-DR3 (a mix of DRB1*0301 and DRB3*0101) (human); experiment: competition binding; design: unit not given beside the values
[2] = target: solubilized HLA-DR3 (a mix of DRB1*0301 and DRB3*0101) (human); experiment: DELFIA competitive binding vs biotinylated MBP 84-102, solubilized HLA-DR3, pH 5.5
[3] = target: solubilized HLA-DR2 (a mix of DRB1*1501 and DRB5*0101) (human); experiment: DELFIA competitive binding vs biotinylated MBP 84-102, solubilized HLA-DR2, pH 5.5
[4] = target: solubilized HLA-DR3 (a mix of DRB1*0301 and DRB3*0101) (human); experiment: competition binding
[5] = target: solubilized HLA-DR2 (a mix of DRB1*1501 and DRB5*0101) (human); experiment: competition binding

| IC50 [4] | IC50 [5] | Substance | IC50 [1] | IC50 [2] | IC50 [3] |
| --- | --- | --- | --- | --- | --- |
|  |  | AChRα peptide 7-22 (from UniProt P02708 27-42) | 6153 ? | 6.15 µM |  |
|  |  | AChRα peptide 36-49 (from UniProt P02708 56-69) | 7299 ? | 7.3 µM | 11 µM |
| 73 µM |  | AChRα peptide 113-126 (from UniProt P02708 133-146) |  |  |  |
| 2 µM |  | AChRα peptide 145-163 (from UniProt P02708 165-183) | 2002 ? |  |  |
| 6.04 µM | 36.8 µM | AChRα peptide 195-212 (from UniProt P02708 215-232) | 6036 ? |  |  |
|  |  | AChRα peptide 204-217 (from UniProt P02708 224-237) |  | 71.3 µM |  |
|  | 4.19 µM | AChRα peptide 310-327 (from UniProt P02708 330-347) |  |  |  |
| 48.9 µM |  | AChRα peptide 419-437 (from UniProt P02708 439-457) |  |  |  |
